Changes are numbered by the printed parent chain.

Sequences and labels used below:
T1: recombinant monkey TfR (r monkey TfR: Sino Biological Inc.) (cynomolgus monkey (Macaca fascicularis), UniProt Q5RDH6 89-760 (Pongo abelii entry))
T1 construct: Bought product; also called r monkey TfR-ECD (Histag); cynomolgus monkey TfR; not shown: histidine tag attached to the N-terminus
T1 chain: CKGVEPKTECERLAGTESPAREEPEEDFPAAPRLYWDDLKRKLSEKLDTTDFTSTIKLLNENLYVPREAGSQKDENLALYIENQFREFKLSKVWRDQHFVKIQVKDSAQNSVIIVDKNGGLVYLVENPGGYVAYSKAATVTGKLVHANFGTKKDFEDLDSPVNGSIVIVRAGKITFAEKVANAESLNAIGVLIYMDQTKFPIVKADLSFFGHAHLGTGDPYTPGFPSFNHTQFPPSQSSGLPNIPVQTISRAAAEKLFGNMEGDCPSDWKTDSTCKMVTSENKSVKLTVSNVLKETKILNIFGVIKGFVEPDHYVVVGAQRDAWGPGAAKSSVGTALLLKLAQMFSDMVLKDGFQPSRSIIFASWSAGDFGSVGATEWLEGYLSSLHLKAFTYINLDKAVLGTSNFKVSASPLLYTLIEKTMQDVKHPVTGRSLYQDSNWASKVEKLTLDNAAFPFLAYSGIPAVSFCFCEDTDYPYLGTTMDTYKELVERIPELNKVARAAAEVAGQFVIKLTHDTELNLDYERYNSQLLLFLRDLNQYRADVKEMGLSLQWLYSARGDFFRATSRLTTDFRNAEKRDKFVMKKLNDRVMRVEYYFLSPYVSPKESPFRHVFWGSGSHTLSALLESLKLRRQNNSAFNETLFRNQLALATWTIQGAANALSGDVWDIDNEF

B1: anti-hTfR antibody No. 14 (antibody, V domains shown)
VH: EVQLQESGPELLKPGASVKMSCKASGYAFTGYVIHWVKQKPGQGLEWIGFLNPHKDDSEYNEKFRGKATLTSDKSSSTAYMDLSSLTSEDSAVYYCARGYYYYSMDYWGQGTSVTVSS
VL: DIVLTQTPVIMSAYPGEKVTLTCSASSNINSIHWYQQKPGTSPKRWIYDTSNLASGVPARFSGSGSGTSYSLTISSMEAEDAASYYCHQRSGYPFTFGSGTKLEIK
notes: Mouse hybridoma antibody purified on Protein G; also called mouse anti-hTfR antibody No. 14; product of Clone 14 line
B2: anti-hTfR antibody No. 3 (antibody, V domains shown)
VH: EVQLQESGAELVRPGTSVKISCKASGYTFMNYWLGWVKQRPGHGLEWIGDIYPGGDYPTYSEKFKVKAILTADTSSSSVYLHLSSLTSEDSAVYFCARSGNYDEVAYWGQGTLVTVST
VL: DIVMTQTTLSLPVSLGDQASISCRSSQSLVHSNGNTYLHWYLQKPGQSPKLLIYKVSNRFSGVPDRFSGSGSGTDFTLKISRVEAEDLGVFFCSQSTHVPWTFGGGTKLEIKR
notes: Mouse hybridoma antibody purified on Protein G; also called mouse anti-hTfR antibody No. 3; product of Clone 3 line
B3: anti-hTfR antibody No. 12 (antibody, V domains shown)
VH: EVQLQESGAELARPGTSVKVSCKAAGYVFINYLIEWVKQRPGQGLEWIGVIHSGSGGTNYNDNFKDKATLTRDVSSSTAYMQLSSLTSDDSAVYFCARRNFGNYYFDYWGQGTTLTVSS
VL: DIVLTQSHKFMSTVIGDRVSITCKASHDVKTAVAWYQQTPGQSPKLLTYWSSTRHTGVPDRFTGSGSGTDYTLTISSVQAEDLALYYCQQHFSTPLTFGAGTKLELK
notes: Mouse hybridoma antibody purified on Protein G; also called mouse anti-hTfR antibody No. 12; product of Clone 12 line
B4: humanized anti-hTfR antibody No. 3-2 (antibody, human IgG1, kappa)
heavy: not shown
light: DIVMTQSPLSLPVTPGEPASISCRSSQSLVHSNGNTYLHWYLQKPGQSPQLLIYKVSNRFSGVPDRFSGSGSGTDFTLKISRVEAEDVGVYYCSQSTHVPWTFGQGTKVEIKRTVAAPSVFIFPPSDEQLKSGTASVVCLLNNFYPREAKVQWKVDNALQSGNSQESVTEQDSKDSTYSLSSTLTLSKADYEKHKVYACEVTHQGLSSPVTKSFNRGEC
notes: IgG1
B5: humanized anti-hTfR antibody No. 3-4 (antibody, human IgG1, kappa, V domains shown)
VH: EVQLVQSGAEVKKPGESLKISCKGSGYSFTNYWLGWVRQMPGKGLEWMGDIYPGGDYPTYSEKFKVQVTISADKSISTAYLQWSSLKASDTAMYYCARSGNYDEVAYWGQGTLVTVSS
VL: B2 VL with T8P, P12S, S14T, L15P, D17Q, Q18P, K50Q, L88V, G105Q, L109V
notes: IgG1
B6: humanized anti-hTfR antibody No. 3-3 (antibody, human IgG1, kappa)
heavy: not shown
light: B4 light with S7T, K108R, V109L
notes: IgG1

One experiment has as its target T2, recombinant human TfR (r human TfR: Sino Biological Inc.) (human, UniProt P02786 89-760).
T2 construct: Bought product; also called r human TfR-ECD (Histag); hTfR; not shown: histidine tag attached to the N-terminus
The experiment in a line: BLI (Octet RED96), His-tagged TfR ECD loaded on Ni-NTA sensor, antibody as analyte. Here is the method:
(§1) By measuring the variations of this shift between the interfering waves, determination of the number of the molecules bound to the layer of the biomolecules immobilized to the sensor tip surface and kinetic analysis of it can be performed in real time. The measurement was performed according generally to the operating manual attached to Octet RED96. As a human TfR, a recombinant human TfR (r human TfR: Sino Biological Inc.) was used, which had the amino acid sequence of the hTfR extracellular region, i.e., the cysteine residue at the position 89th from the N-terminal side to the phenylalanine at the C-terminus, of the amino acid sequence set forth as SEQ ID NO:1, with a histidine tag attached to the N-terminus. As a monkey TfR, a recombinant monkey TfR (r monkey TfR: Sino Biological Inc.) was used, which had the amino acid sequence of the cynomolgus monkey TfR extracellular region, i.e., the cysteine residue at the position 89th from the N-terminal side to the phenylalanine at the C-terminus, of the amino acid sequence set forth as SEQ ID NO:2, with a histidine tag attached to the N-terminus.
(§2) Each of the antibodies (anti-hTfR antibody Nos. 1 to 14) purified above was subjected to 2-fold dilution steps with HBS-P+(10 mM HEPES containing 150 mM NaCl, 50 μM EDTA and 0.05% Surfactant P20) to prepare antibody solutions of 7 different concentrations, 0.78125 to 50 nM (0.117 to 7.5 μg/mL). These antibody solutions were used as the sample solutions. The r human and r monkey TfRs were respectively diluted with HBS-P+ to prepare 25 μg/mL solutions, which were used as r human TfR-ECD (Histag) solution and r monkey TfR-ECD (Histag) solution, respectively.
(§3) Each of the sample solutions prepared above by 2-fold dilution steps was added, 200 μL/well, to a 96-well plate, black (Greiner Bio-One Inc.). Each of the r human TfR-ECD (Histag) solution and the r monkey TfR-ECD (Histag) solutions prepared above was added, 200 μL/well, to predetermined wells. To respective wells for baseline, dissociation and washing were added HBS-P+, 200 μL/well. To wells for regeneration were added 10 mM Glycine-HCl, pH 1.7, 200 μL/well. To wells for activation was added 0.5 mM NiCl₂ solution, 200 μL/well. The plate and biosensor (Biosensor/Ni-NTA: ForteBio Inc., a division of Pall Corporation) were set in the prescribed positions of Octet RED96.
As a reminder, the Kd is the free concentration of one partner at which half of the binding sites on the other are occupied at equilibrium, for simple one-to-one binding. As a reminder, the koff is a measure of how fast the partners let go of each other. A word on the kon: it is the rate constant with which the complex forms. As for B1, the Kd was under 1 pM, the dissociation rate constant (koff) is under 1e-07 s⁻¹ and the kon stood at 961000 M⁻¹ s⁻¹.
For the molecule B2, the Kd is under 1 pM, the koff is under 1e-07 s⁻¹ and the kon worked out at 653000 M⁻¹ s⁻¹.
For B3, in that order: 432 pM, 0.000723 s⁻¹ and 754000 M⁻¹ s⁻¹.

The next experiment has as its target T1, recombinant monkey TfR (r monkey TfR: …). The description is as above. As to the method:
as §1, §2, §3
In the case of B1, the Kd was 51.6 pM, the koff turned out to be 3.61e-05 s⁻¹ and the kon stood at 700000 M⁻¹ s⁻¹.
On the same counts, the results for B2 are under 1 pM, under 1e-07 s⁻¹ and 389000 M⁻¹ s⁻¹.
For B3, in that order: 249 pM, 0.000126 s⁻¹ and 505000 M⁻¹ s⁻¹.

The target in the next experiment is T2, recombinant human TfR (r human TfR: …). Briefly: BLI (Octet RED96), method of Example 7, His-tagged TfR ECD on Ni-NTA sensor. As to the method:
as §2
as §3, with “RED96. […] The measurement was performed at 25 to 30° C.” for “RED96.”
(§4) The affinity of the humanized anti-hTfR antibodies obtained in Example 13 to human and monkey TfRs was measured by the method described in Example 7.
On the technique in general: Biolayer interferometry detects binding as a change in optical thickness at a sensor tip.
As to B4, the Kd stood at 23.9 pM, the koff was found to be 1.45e-05 s⁻¹ and the kon amounted to 606000 M⁻¹ s⁻¹.
For the molecule B5, the Kd is under 1 pM, the koff is under 1e-07 s⁻¹ and the kon amounted to 1.01e+06 M⁻¹ s⁻¹.
On the same counts, the results for B6 are 20.9 pM, 1.25e-05 s⁻¹ and 600000 M⁻¹ s⁻¹.

A further experiment addresses T1, recombinant monkey TfR (r monkey TfR: …). Described as above. As to the method:
as §2
as §3, with “RED96. […] The measurement was performed at 25 to 30° C.” for “RED96.”
as §4
In the case of B4, the Kd came to 1770 pM, the koff is 0.000876 s⁻¹ and the kon turned out to be 495000 M⁻¹ s⁻¹.
Turning to B5, the Kd turned out to be 260 pM, the koff worked out at 0.000135 s⁻¹ and the kon was found to be 519000 M⁻¹ s⁻¹.
For B6, in that order: 1910 pM, 0.000932 s⁻¹ and 488000 M⁻¹ s⁻¹.
